{
  "source": "the domain aggregation screens of Martell et al. (2025)",
  "data": [
    {"experiment": "soluble fraction after stress (log2 fold change); higher = more stays soluble; pooled small domains, quantitative proteomics", "conditions": "stress: 75 degC", "values": [
      {"sequence": "HMSAAELFEERQRQYLRGRKSTKNIADNHGTIILRAGETITDQAIDKAKVAGKLVELVMNNE", "soluble fraction (log2)": 0.104},
      {"sequence": "HMSADDSDDRKGIDAWLTQLLANGSVKATEVYSAADAAGYSKDQAKRAKRRLAIEAVREAMDGPWFWRLD", "soluble fraction (log2)": -0.853},
      {"sequence": "HMSAEDQRRASQEAAYRFMQVMAGNEAGFEDAARALFAGDNHRFEVLIQSWPDDVRDHVSLLSVDAFA", "soluble fraction (log2)": -0.651},
      {"sequence": "HMSAEVMLRRLIDENDPSSENARYILAVMLERKKILAPVDVKNEKKSKMLFYEHQKTGEAFIVRDP", "soluble fraction (log2)": -0.0597},
      {"sequence": "HMSAEVSEIEIQRIISYYRNQNGVPDKYNEIFDRIAAQYTDEQLKVISNFLPSDVKQYLSFNNEKYKSLG", "soluble fraction (log2)": -0.904},
      {"sequence": "HMSAGKKSFTNSEFRRFLDALGEGLIVKHKKLGEGVVVEIRGDKAVIQFGDEQRLYELKTLYEYDLLR", "soluble fraction (log2)": -0.628},
      {"sequence": "HMSALAQDGDLVQLQGAGYKSHILRLKAGEVLQTHRGVIQHDAVIGQPWGARLQSHTGSPFYLFQPGLADL", "soluble fraction (log2)": -0.684},
      {"sequence": "HMSALTELPVKTVNGKKYHYYVVKQHETVYALSKRFGITPEQLIKYNPSAEDGLQIDQELLFPATEI", "soluble fraction (log2)": -0.353},
      {"sequence": "HMSANVSMEEALRRTSQAHSLAGKWMRRVLQMAQGRDLIEQMQREAQEAHLPELIGMSVQLEFIRRG", "soluble fraction (log2)": -0.107},
      {"sequence": "HMSAPEGWMNRGDLRDNFRIQYPVTDRIIASYRESHPEWFGTYLSKTSKSLEYFHPDLVAKVREAAN", "soluble fraction (log2)": -0.0761},
      {"sequence": "HMSAPQKWDGSLQDFIRFKQEAKTLMDNIPNKRLALNAILETISDGKMRKRLAKYDGPESALKSLELEFGN", "soluble fraction (log2)": -0.1},
      {"sequence": "HMSAQDLIVRRDSARIEARVTEISPTEIRYKRASNPDGPTYVLPLGDVRSIRYANGEEEVFAPA", "soluble fraction (log2)": -0.223},
      {"sequence": "HMSAQQTFLRDAMRRLNMTRDSFAERIGVRRRALDTWLLPEDSSEYRTMPSIVEKFVGEILGREA", "soluble fraction (log2)": -0.65},
      {"sequence": "HMSARKVTVALHTRDHADRLRRLLKHEGVSADLVAARLSHKLTDHPIEVRVNEDDIPAVLRIIENIEIF", "soluble fraction (log2)": -1.61},
      {"sequence": "HMSASLPAAVEDPDLPYRVGAKLRHARWGEGLLVGIQREGSDVIATVHFASVGRKRLSLQYAHLEE", "soluble fraction (log2)": -2.17},
      {"sequence": "HMSATIMVLRASEDIPVGTEIKDNHLTTVEVGSYGLPEGAINDKDTVLGKVAQTNIIKGDYFFPQKLGG", "soluble fraction (log2)": 0.339},
      {"sequence": "HMSDAQIKASINDLWFKYNLETFAKLNLNVNQGRVLVTGIVQNPEHRLEAIRLVWTVDGVQQVINEIQVAE", "soluble fraction (log2)": -2.33},
      {"sequence": "HMSDDIPVHYRLDVNDAARALKLLTDNGFSAETAESGLNVYMTRLQSAEAARLLVENNIAVYGLTAV", "soluble fraction (log2)": -0.297},
      {"sequence": "HMSDDLIILGYSMLNNALKAFHIDPDSIKKKHWDKLAQDYHLKNKNQILTDIALGKRVNIMVAHQLTTIMD", "soluble fraction (log2)": -0.738},
      {"sequence": "HMSDDSYLVALAEAYKNATSWDIRRQVLSIMTGVSSYKEISRYIPGLTQYRLSISNLHRLQYGRAAPVP", "soluble fraction (log2)": 0.0264},
      {"sequence": "HMSDEAGKVLQLLRENGGYLPYNDRSDPEDIYAFFSMSKKTFKMTAGNLYKQKKIIFTNTGIKLTE", "soluble fraction (log2)": -3.51},
      {"sequence": "HMSDEVNTDKAFRAIDSTLNRNVKGIAPRDHTLLRNTMITYFKSNDYIDYDTMIQSTLENYKPTELEQDKM", "soluble fraction (log2)": 0.0497},
      {"sequence": "HMSDGHLIKVLEVLDGGEAFLGRTANGGTARFSLGQLADIRRGSVVFVSEDRWEVVPDSAWPEI", "soluble fraction (log2)": -1.1},
      {"sequence": "HMSDGIPDLRNLNFLSPQEGDYLNESDRVFGVTINGDGQAYPLRIVNAHEMVNDTLGGEPISLM", "soluble fraction (log2)": 0.124},
      {"sequence": "HMSDHKNANFTKVVKVAQELLQDEDDKAGITPTLIEEKISAVLAMNRRWAEGLDRAAVADELIRRFSIW", "soluble fraction (log2)": -0.847},
      {"sequence": "HMSDIATLVPGPTDAELAASALRGLDAALDADTPVRLSLGEPGGEVEVPRSVLAALARVLDSFAHGEGVTL", "soluble fraction (log2)": -0.0408},
      {"sequence": "HMSDIISEIESQVMFKLATYEITNATEKMIEALINSEINDRRTLGFPIPNEQGRIFLVRSIQNKLAV", "soluble fraction (log2)": -2.77},
      {"sequence": "HMSDIIVQGNRRLDTDLIITDSQIREIGTDEKSLSLAVKNLYKTGYFENVQIFKDNSVVFINVKENQ", "soluble fraction (log2)": -0.618},
      {"sequence": "HMSDIQKGTQINLVNEPLYVSSKTSIVSTYKTGTYYTWGFEANNRIAITNKLENIGVKGQVTGWINKP", "soluble fraction (log2)": -1.73},
      {"sequence": "HMSDKFNALWIILNKLDKKEKVTARSLMEDLEVSERSVYRYITTLQVAGFPVDYDRAVNSYVFSDGYTLK", "soluble fraction (log2)": -4.11},
      {"sequence": "HMSDKLTLPVQINGVFRYTIEINPSMQKDEIIDLVKNEERTAKYKQDKEIKNVIVVPGKIVNIII", "soluble fraction (log2)": -0.339},
      {"sequence": "HMSDLPLLEHARQNLSDDEFRILELTTIYGYRRVEVAKMLGEPISTINWKYNKLIKKVKTFYGEVYN", "soluble fraction (log2)": -0.998},
      {"sequence": "HMSDLVATKEQVVEAYKYGLGLGLDNSTLKMLLFDIRGEDVADQDKISDGMTVSEIEIWKEGMRTIAEEYL", "soluble fraction (log2)": -0.5},
      {"sequence": "HMSDMIGQNIRRLRTEKQMTQKALADKLFVTAQAVSRWENGEVEPSLSTVTEIARIFNVSADEILGI", "soluble fraction (log2)": -0.228},
      {"sequence": "HMSDPDPAEQALLRQFMTRYAAYRRRGQHPAGAFRTASLEVFGQEPSGDLRDVIVDLESGLV", "soluble fraction (log2)": -0.234},
      {"sequence": "HMSDPELNDNEKKIYDIIFNKKSMDLTELKNLSELSNKQWDKGIKSLSKQDFVKVIKTEEALIVELV", "soluble fraction (log2)": -0.509},
      {"sequence": "HMSDPSAQADALFNEGKTAEAFNVLLRLIEDSPEDQREDYRVRLLDLFRIAGNTPEVKAARRRLSALLM", "soluble fraction (log2)": -0.237},
      {"sequence": "HMSDRFVRIVMNDGTVKLGQMISEDADFIRLKTNNLGELNIPKYLVLDMMDLTRSEYVRLSISNAG", "soluble fraction (log2)": -0.282},
      {"sequence": "HMSDSAFAEMRRELEALRNSNAEYERALSNFFPEAEDKALAAEAFYQNREYDELVAEREEANVIDGLKR", "soluble fraction (log2)": -0.198},
      {"sequence": "HMSDSISLTLNGDLRRFRAHATIADLVRDIGLDPVKVAVERNLEIVSRSTLEDVVLADGDRLEIVHFV", "soluble fraction (log2)": -2.23},
      {"sequence": "HMSDSLVLTGVAYVDGKPVVTLFDKVKKESLVVTDQPNLKGWTLVEATQSSDIKRATAKVNIGGEPVSIRY", "soluble fraction (log2)": -0.0165},
      {"sequence": "HMSDTFENILQRLIKATGRKNASEMANALGLSPQSVYSAKTKGKIPPAWIFAAAERFNASADWIYFGY", "soluble fraction (log2)": -1.5},
      {"sequence": "HMSDTSAIEKIIDEVLSDESSQKAINDIKNGNEKVYGFLVGQVMKKSQGKANPGLVQKMLREKIAK", "soluble fraction (log2)": 0.116},
      {"sequence": "HMSDYKSALQEAVQTNKQSIEYVLIKESGPAHNKTFTFEVRIDNISYGVGTAKSKKEAEQIAAKDALDKLV", "soluble fraction (log2)": -0.0877},
      {"sequence": "HMSDYVLLYSGLNTSDTTFLAYSFQEKGIRYKMPNPDEIEVRVQDVDQARRIAAGAQLGGQVS", "soluble fraction (log2)": -0.536},
      {"sequence": "HMSEEGTIPDVSGQDEASAQKALENAGFTNIKSEAVYSEEEQGTVIDTNPTAGTKVSKDTEITMQVSKGSE", "soluble fraction (log2)": 0.248},
      {"sequence": "HMSEEKLVFSIPDDIETMRIDKAIALETHLSRAQIAELFKENKILLNSKNSKRSEKVKPGDKISLEFIPKI", "soluble fraction (log2)": -0.0442},
      {"sequence": "HMSEEVKSQPISILDLSTRASNGLKNEGIETIGELVKYSEDELLGLDKFGQNSLKEIKKKLEEIGLTLKEH", "soluble fraction (log2)": 0.00703},
      {"sequence": "HMSEFLTIVRAVYSGLSRRKVAAMHKVSRNTVSLYLRQARDQGWLTLEDLEKLDDLTVSQGVS", "soluble fraction (log2)": -2.08},
      {"sequence": "HMSEFVIPLAKYNKALYTQVSLGMRFRMLFETEDSGVRRYMGTITGIGDLDPIRWKNSHWRNLQV", "soluble fraction (log2)": 0.191},
      {"sequence": "HMSEHLTLVVSDEDAGHRVDQFLVSRLAHMTRSQIQKLIKDGQVTIDTKLVRASTTVHTDNIVTIEFPPAV", "soluble fraction (log2)": -1.21},
      {"sequence": "HMSEKLTLEAANEAAGMRIDKWLAMQLPELSRSRIEALISGGGVVVNGKNPSKSLKLKGGEQIELEIPE", "soluble fraction (log2)": -0.0607},
      {"sequence": "HMSELLIVGSEQDNTRLDRFLADQYEEYTRSFLQKLIDQGNVSINGISVKKSGIKLKENDEIAVTLPEPQ", "soluble fraction (log2)": 0.646},
      {"sequence": "HMSELPLTQKVAIVMVALGEEASGEVMKHLSDYEIEEITQAIAGLKNISVELMDQILEEYEQHLIAG", "soluble fraction (log2)": -0.515},
      {"sequence": "HMSELTKEIGKRIHDFRKSRGLNQEELARLIYKSKATLSKYEKGEIAIDLDTLKQLALALHVRMEQLLPPT", "soluble fraction (log2)": -1.5},
      {"sequence": "HMSENDTILAKFVSVMGNKNLELVIFPDIAYLKGQVSNPEDKTKAETVAQSLLGGKPLVSLIEFE", "soluble fraction (log2)": -0.332},
      {"sequence": "HMSENIQLQKEQLYQLIAQLPEQRQKIFRLHKIDNYSYQEISDFTGLSRKTIANHIYLAHQFILKKVKK", "soluble fraction (log2)": -3.76},
      {"sequence": "HMSENKIMEIVQDLAREKSVILISHRLANVTAADKILYMEQGKIAESGTHEQLMAQNKAYAALFNKQQEL", "soluble fraction (log2)": -0.0206},
      {"sequence": "HMSENLESEFFGIVVITQTLLQKELRDKPMTVELIRKTVEDVMSKHYSDSSVDKAKVEEELIRRFSTW", "soluble fraction (log2)": -1.32},
      {"sequence": "HMSENMSQDLAQWYRLQQALHPNLDAPELWATDLTSQQRTVRDQLIQQWAQEKRDSLWSEISGD", "soluble fraction (log2)": -0.0639},
      {"sequence": "HMSEPFDMAVPLTSGGRRLDQVLAELLPQHSRNRLQGWIRDGLLTLDGVTVTEPKRKLAGGEQLALLLP", "soluble fraction (log2)": -0.169},
      {"sequence": "HMSEPTLESLRAEGAHHYDPARFHYLEVLARRMPGQHAAVQQVLASRLREAVAAYAGRRSLI", "soluble fraction (log2)": -0.157},
      {"sequence": "HMSEQSEALRTGLDQLPINQRTALTLFHLHELNQSEVAKIMNISVGAVESLLFRGRQKMKQLLTSD", "soluble fraction (log2)": -1.39},
      {"sequence": "HMSERIITFGEATREAMLEEMRADERVFVYGEDIAKQGGIFGQFAGMKDEFPERVLDTPISETALVGAG", "soluble fraction (log2)": 0.157},
      {"sequence": "HMSERVVVPDLTGKDLVAAQSELREISLAGREEGPGDKVRRQFPVAGVKVPKDTVVILYTED", "soluble fraction (log2)": 0.0278},
      {"sequence": "HMSESAGKALDILFYLARVEDEVSLARLSKETGMNKATALRYLAVLESWGVVEKRPSGWSLGLSLFELGSK", "soluble fraction (log2)": -2.05},
      {"sequence": "HMSESGTFRAEAADAGRRLDVALAERLRLSRAAAQRLIAAGLVLVEGSPARKRQILHAGETVAWRAAPP", "soluble fraction (log2)": -1.03},
      {"sequence": "HMSESLLTAAGFKTIAATTPEQKRHLEWLHPDQVTAVQLTGQHYYVYPDVAKSQLFVGTPKEYQAYLALRT", "soluble fraction (log2)": -0.16},
      {"sequence": "HMSESLRDLVLSLIPEDGSTIGNRALITRLREDLPDLTDEDYHEVRDQLIAEGVLAKGRGQGGSVARANG", "soluble fraction (log2)": 0.311}
    ]}
  ]
}
